B1: Short transient receptor potential channel 3 (Mus musculus), Q9QZC1 (parent)
chain: MSTKVKKCREPARVTLPAPEEEEDGEAEGGESQRRRRGWRGVNGGLEPPCPRAPPSPGPDASSEGSPSRWRTAGMRDKGRRQAVRGPAFMFGARGPSLTAEEERFLDAAEYGNIPVVRKMLEESRTLNVNCVDYMGQNALQLAVGNEHLEVTELLLKKENLARIGDALLLAISKGYVRIVEAILGHPGFAASRRLTLSPCEQELRDDDFYAYDEDGTRFSPDITPIILAAHCHKYEVVHLLLLKGARIERPHDYFCRCSDCAEKQRLDAFSHSRSRINAYKGLASPAYLSLSSEDPVLTALELSNELAKLANIEKEFKNDYRKLSMQCKDFVVGVLDLCRDSEEVEAILNGDLESAEPLERHGHKASLSRVKLAIKYEVKKFVAHPNCQQQLLTIWYENLSGLREQTIAIKCLVVLVVALGLPFLAIGYWIAPCSRLGKILRSPFMKFVAHAASFIIFLGLLVFNASDRFEGITTLPNITVIDYPKQIFRVKTTQFTWTEMLIMVWVLGMMWSECKELWLEGPREYIVQLWNVLDFGMLSIFIAAFTARFLAFLQATKAQQYVDSHVQESDLSEVTLPPEVQYFTYARDKWLPSDPQIISEGLYAIAVVLSFSRIAYILPANESFGPLQISLGRTVKDIFKFMVLFIMVFLAFMIGMFILYSYYLGAKVNPAFTTVEESFKTLFWSIFGLSEVTSVVLKYDHKFIENIGYVLYGIYNVTMVVVLLNMLIAMINSSYQEIEDDSDVEWKFARSKLWLSYFDDGKTLPPPFSLVPSPKSFVYFIMRITNFSKCRRRRLQKDLELGMGNSKSRLNLFTQSNSRVFESHSFNSILNQPTRYQQIMKRLIKRYVLKAQVDKENDEVNEGELKEIKQDISSLRYELLEDKSQATEELAILIHKLSEKLNPSVLRCE

Variants of: B1
Conditions: with kpcg_human PRKCG

| effect of a mutation on the interaction | Variant |
| --- | --- |
| disrupting interaction strength | T635A |
